The data set is described as follows: label from the status in PepcDB records.
Take “MDFLPIFVIIASVMTAVSVYLIYLVKKGINGIGFLLVLYLSGSMLTMFISLSIALSNTALTTEILALTVNTAYMIVGLVSILLLGASRRKIESRKWYTVLLFSLLMTISEAVMGESFYSILTKSIGNPLIGTENYWFYAVMLAEMTFTLVYSFNSLTRQIRNYLLVTLPIMVVSPVILPTFSIWLSSLLMIVATIIIYDTLYRDRLKKTQETFTSLELMLIFTLMMAGIFTYYVTSSWYLYDISMILGMTWFIYRAIQGPSSIKGNYLRDSRWTFAFVLMTFVMEWFMGAVLDFASSYFSPGVEGFISSLPLGFVNPFSYFGAGALFDFLSIFGSVTGSVWFLVMMGLEMGTLAIFRIKEVRLRENRIRLALMVSAFAIYAVYIPSFSPLASKIPYIPYMWSMGLGTLGPVSTDYLLSGIVGTYVLSAVLSFLFGSRQICSVTCTAPTMYQGTFYNSLKVYNRTSSFARKTLSSKLRPWYKLIAIAVWSSLLAFAVISYFDQKGILNITIFGNDPTMFLYSFYFNFLWYVVFISIPFSGNYACVTQGWCSWGTFNQFFGGLGLFRLKVKDPELCVKCETKACSKACPVGNTDLPGNFIKKGEFKSSRCIGVGDCAEACPYDNIMFYDVRSWLKEKIKGDKM”: the protein production result was “failed”. For the sequence “MDFLTEWIWFFLFVPLAALGGWIVGRRGGQRHGDTQVSRLSSTYFRGLNYLLNEQPDKAIELFLHIAELDKETFETQVALGHLFRRRGEVDRAIRLHQGLVQRGDLTDQQRVQALLALGEDYMKSGLLDRAETVFTELAQLDQRAPQALRHLIGIYQAERDWEKAIDNATRYEEVTGEPMGKLISQFECELADRYRGLGKTDDALQAIARAYQADGTSVRAGILEGRIEAERGHDEAAVRAFERAARHDPEYLPEIIPALMAAYRRVGDIAGARNFLSEMTEHYRGIAPVLALTQLMEAQDGVAPALAYLGRQLKDRPSVRGESALIDLTLAEGSDPVGTLQDLKHITDQLLVRNPSYRCTRCGFGAKTHHWQCPSCKEWGTVKPLLNYAVV”, the protein production result is recorded as “failed”. Then “MDFNYTIKALRTKKKLDAKPMTHTDFCYTIKALRSTKKLDAKPKPHTDFGYTIKVLRSRKKLELEPQLDLKSLSSVDLLEDTNSKTHTDFSYTIKASRSKKKLDTKSKTRTVFDYTIKAFRSKKKLDRKPKTHTDFGYTFKAMRSKKKLC”, with “failed”; and “MDFQAVTDELKTWTKARVMPGFSVALLTGKTVQTAVSGEAQWFPQPAPLQPHMLYDVASLTKVIGTTTVFLQAWDQGLVSPDMPLHRFLPDFPHTTTFRQALTHTSGLEGYIPHRNALPAPALKQALMTQLTVTEEVDRQVVYRDVNLLLVGWALEQVYHQPIQTLITRQVIQPLALPQATFQPDSQQCVPTTYSPAVGLRQGVVHDPKSAILGKHSGAAGLFASLADLVTFTEYFFGNRQSASWPAHAVDLTQDWTKHHLGRSLGWDLRRDGQGRLWLYHTGYTGTFWLIQPDDQLALVVLTNRVHPQPNPAFLARRDALIARFLSDFKTMPAV”, with “failed”. In the case of “MDFRRAPELIGRLQEQAVVPREQGVQRLMRLALEYWLLPVLLLAAAVRFYDLTAAAIWGDEGSSLVLSQYSLSEIWFHAARDVHPPLYFMLLRGWIELFGDGIFSIRTFSALPGIVTVGLGMWLVALLATRRAAILAGVLLALLPTAVRYSQEVRMYALLGLLLLGATLALVYWLRQPSRPGYLVSYALLMTLAFYTHYFTAFCVLAHWLYLAVSGVRAEGGGRLVTRPAWWLANAAIVLLFLPWVPELLDLLRHMDELKANGDVGWEPVVTWSSLPAMVWQLLIQDEGDNLPGALFVGMPLLLLAVCSVLAWRDGAPARFGGLLASFTLLPLLLVFAVSFASPVFIERYLTAYALGLPMIMAVLIDRWLKTARLVALALLLGFVGLEAVGLKNNIDVDANDQISVMVDYVNRHYVAGDRIVISDMLWYLSYVYYNRTDAQPMLYTPPLPGGTSSRPNAYGFGTLIDHPDQVYLDQLSALSVGSGRYWLVGSDDQSEEFAPLPQGWHKVGQFAAGGTRARLFVLCGSAAGASCAGQ”, the protein production entry is listed as “failed”. Then “MDFSPPTTTADQSRRGFLKKSLAVSATVAAIGSLPRLSAAEPLTQRYPDPLVGVLDDSFLDIRIFNASVEKLATGMRWAEGPVWVGDGRYLLVSDIANNRIMRWDEVTGALSVYREHSNFSNGMCRDRQGRLLVCEGSSTTSEGRRVTRTEYNGRITVLADSFDGKPFNSPNDIVCKHDGSIWFTDPTFQANSDYEGHKVKQEQPFGVYRIDPSSGKVSRVIDDLAGPNGLCFSPDEKTLYVVEGRAKPNGLIWAIAVNEDGTLGERRKHVEGLEYAAIDGIKCDESGNLWCGWGGNGNPKADLEKLDGVRVFNPQGKAIGHISLPERCANLCFGGREGNRLFMASSHSLYSVFVNARGATLA”, with “failed”; and “MDFSSNVAAQLNAGTILPEGIVIVTLLLVLIVDLIGGRKVALALPYLAIAGLLVSVGLLVTSWSMADPIGFIGAFNGDNLSIIFRAIIALSTVVTILMSVRYVQQTGTSLAEFIAILLTATLGGMFLSAANELVMVFISLEMLSISSYLMTGYMKRDPRSNEAALKYLLIGASSSAIFLYGLSLLYGLSGGETQLVLIAEKLVNADTVGQSLGLAIALVFVIAGIAFKISAVPFHQWTPDVYEGSPTPVVAFLSVGSKAAGFAVAIRLLVTAFGGITDEWHVIFTALAVLSMVLGNVVALAQTSMKRMLAYSSIGQAGFVMIGLVAGSEDGYASMVFYMLIYLFMNLGAFSCIILFTLRTGSDQISDYAGLYHKDPLLTLGLSICLLSLGGIPPLAGFFGKIYIFWAGWQSGLYGLVLLGLVTSVVSIYYYIRVVKMMVVKEPQEMSEVIKNYPAIKWNLPGMRPLQVGIVATLVATSLAGILANPLFNLATDSVVSTKMLQTALQQTGETPAIAISHDLP”, with “failed”; and “MDFSVLLASLGISILELSEASAVAVIFQGIYKNSKPFLYAIAGILIVLVPVFTLGQYIVLLPINYVLLVAAVILAYFGYKLLRSARRSFKGSKKKHEEKEEGIMTVFVVSATEALEAGLVILALIPQSFSSALLGTGIAVIIVIALTIALRSQIMKIRVPHLKFVLSALLFGLATLFVAEALVDIDEVFLPLFFVIYLGVNYLVIKL”, with “failed”. Consider “MDFVFDIDGTLCFDGMSLSKEIQGILERAQIDYGHRVTFATARSYRDTIGILGDKLSLSKIIGLNGATLHENGHLVDSYYLQSDFFSTIISYCHRHQIPYFVDEVFNYATYQASKIPFIAYVDPQKRGELLEVSKIEKPIKMVLYFGDQLGRADQMLAELNRFGLSSHFFHEFEKCLYINPIAVDKGKATKKLFGNRFIAFGNDKNDISMFDAAHYSVQVGDFDELTPYANLRVSRESVHEGITTLFEKYKGIT”, for which the protein production result is recorded as “failed”.

With “MDFWPEFMATSWGREFVAGGFGGVAGIISGYPLDTLRIRQQQSSKSGSAFSILRRMLAIEGPSSLYRGMAAPLASVTFQNAMVFQIYAIFSRSFDSSVPLVEPPSYRGVALGGVATGAVQSLLLTPVELIKIRLQLQQTKSGPITLAKSILRRQGLQGLYRGLTITVLRDAPAHGLYFWTYEYVRERLHPGCRKTGQENLRTMLVAGGLAGVASWVACYPLDVVKTRLQQGHGAYEGIADCFRKSVKQEGYTVLWRGLGTAVARAFVVNGAIFAAYEVALRCLFNQSPSPDIVTGD”, the protein production result is on record as “failed”. For the sequence “MDGGDDGNLIIKKRFVSEAELDERRKRRQEEWEKVRKPEDPEECPEEVYDPRSLYERLQEQKDRKQQEYEEQFKFKNMVRGLDEDETNFLDEVSRQQELIEKQRREEELKELKEYRNNLKKVGISQENKKEVEKKLTVKPIETKNKFSQAKLLAGAVKHKSSESGNSVKRLKPDPEPDDKNQEPSSCKSLGNTSLSGPSIHCPSAAVCIGILPGLGAYSGSSDSESSSDSEGTINATGKIVSSIFRTNTFLEAP”, the protein production entry is recorded as “not failed”. “MDGGFVRVCLLASGSKGNSLFVESDGTRVLIDAGLSAREIVRRLAVIEVEPADLDGLFISHEHVDHVRGVGVLARKYRLPVHVSYPTHHEVREGFGDAPVVEFESGYSFGFRDLLIDPFPITHDACDPVGFTIESKEGKVGIATDLGTATRLVADKLKRCRVLVLESNHDEEMLMGGPYPWHLKQRIKSRHGHLSNNDSAALLAEVLHPGLEGLFLAHLSEVNNDPAVAKEVAENLLVAQTTCSPRLIVGDQYRPSETLTL”: the protein production entry is “failed”. Then “MDGLHVSILSLVIFIVLFAVFVYLGFYASRWRKGDLSKLPEWALAGRKLGPYLMWFLLTADLFTAYTFIAVPSLVLASGPIGFYAAFYSGVTAFIALLFMPRLWAVSRNKGYVTAADFVKDRFNSKTLAGLVAVTGVVAELPYIALQIVGMQAALSILLLGLGVSNISLVNDLSLLVSFIILAAFVFTSGLRGAALTAVYKDIIILATVITVAIYVPLAFGGFSAAFSNAATYSSQVNSALNGVNKPIFYQYLQSTVSNNLAYISLAIGSAFALYLYPHAVNGSVSADSKKSLKISLALQPFYSLILAIIALFGILVYANTNVLNFIIHAKSGAVAVPALIGYTMPDWFVGVALLGIFIGGLVPAAIMAIGAANLLTRNIIKELKPNMSPNTESSLAKWISTAFKFIALALVFTVPATYAIQLQLLGGVIILQTLPPLFLGLYTHKLNSHSLIAGWVAGMFSGIYLTMLANHFGPIKTTSFITPIGVMYIGAISVIINVAIGLIGTAIAYGVGWRPRTGVKTEELV”, with “failed”. “MDGMGTLTRYLEEAMARARYELIADEEPYYGEIPDLPGVWATGKSLKECEANLQAALEDWLLFLLSRGETPPPLGEVRIELPHGEAA”: the protein production entry is “not failed”.

Consider “MDGQQLNRLLLEWIGAWDPFGLGKDAYDVEAASVLQAVYETEDARTLAARIQSIYEFAFDEPIPFPHCLKLARRLLELKQAASCPLP”, for which the protein production entry is “not failed”. Then “MDGRDLVRSVKAVGSGGAAGGLRTVRAAWRRRRADASGLPRRGAERARVPGPVQGVVPGPGGGVIRFARSELRITVAVNGAVFWGWDGAGPEPSYALAGRCPEPDPRAVLEPDKDGGWQVVAERGTVMVSRHGAVEVRTPGGVTLRRDLPPRWWEPADGGAAHWMQRSEVAADARFFGLGGRAAGPRLRGGTYRLWNTDPGHAVGPGDDPLYLTMPVQLVVADAATHLVFHDTSWDGTVTLREGEEGAGSGHDRAGTSELRMDGGPLRCWVMMGTPARVLHTWASLTGAPALPPAWALGHHHARRGSGSEQEVRGVVSGYQERGLPLDAVHLDNDHYDAHQVFTVDRDRFPKLPVLAEELRRDGIRLVSVVDPAVRAEPGNAVYDAGSAQDAFVRDAAGRVVEGVVWPGESVYPDFTHARVRKWWGGLYEERLAQGFAGFWHDLNEPVSFTAFGENTLPRSARHLLEGRGGDHREAHNVYALGMARAGYEGLRELSPQERPFIFSRSGWSGMQRYGGAWSGDVTTGWPGLRASLSLVIGLGLCGVPYSGPDVGGFDGSPSPELYLRWFQLGSYLPLFRTRAGLRAGRRELWEFGEDVLEHARVALVERRRLLPYFMTLAHLARRTGAPYVRPVWWGAPEDRALRDCEDAFLLGDSLLVAPVLDPGADRRAVQLPRGRWYDTVTEKAYDGPGQVLIGAPLSRIPVLARAGAVLPVRGDGGRLELEVWRPARGRTGGGLVVPDSGDGWDEPEIEQYVTRLRGQRVVVERDGDEGPGEPSYPVRVRGLPQA”, with “failed”.

For the origin of these results see a protein production outcome set (Wang et al. 2014).
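Also: failed if final PepcDB status was selected cloned or expressed and not failed if soluble or beyond.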
